Measurements from IntAct's records for PubMed 19617556.

B1: DCN1-like protein 3 (Homo sapiens), Q8IWE4 (parent)
chain: MGQCVTKCKNPSSTLGSKNGDREPSNKSHSRRGAGHREEQVPPCGKPGGDILVNGTKKAEAATEACQLPTSSGDAGRESKSNAEESSLQRLEELFRRYKDEREDAILEEGMERFCNDLCVDPTEFRVLLLAWKFQAATMCKFTRKEFFDGCKAISADSIDGICARFPSLLTEAKQEDKFKDLYRFTFQFGLDSEEGQRSLHREIAIALWKLVFTQNNPPVLDQWLNFLTENPSGIKGISRDTWNMFLNFTQVIGPDLSNYSEDEAWPSLFDTFVEWEMERRKREGEGRGALSSGPEGLCPEEQT

Variants of: B1
Conditions: with cul3_human CUL3, Q13618

Row | effect of a mutation on the interaction | Variant
1 | disrupting interaction strength | MGQCVTKCKNPSSTLGSKNGDREPSNKSHSRRGAGHREEQVPPCGKPGGDILVNGTKKAEAATEACQLPTSSGDAGRESKSNAEESSLQRLEELFRRYKDEREDAILEEGMERFCNDLCVDPTEFRVLLLAWKFQAATMCKFTRKEFFDGCKAISADSIDGICARFPSLLTEAKQEDKFKDLYRFTFQFGLDSEEGQRSLHREIAIALWKLVFTQNNPPVLDQWLNFLTENPSGIKGISRATWNMFLNFTQVIGPDLSNYSEDERWPSLFATFVEWEMERRKREGEGRGALSSGPEGLCPEEQT [D241A;A265R;D271A]
